Here are results for three substances from paper PMC11033958.

The target in assay [1] is ACKR3_RlucII (N-terminally FLAG-tagged human ACKR3, residues 2–362, with a C-terminal fusion of Renilla luciferase II) (human) (UniProt P25106).
In assay [2] the target is purified ACKR3:CXCL12_(LRHQ) complex, ACKR3 phosphorylated in vitro by GRK5 (UniProt P25106). The assay is described as follows: pull-down; 1.1 µM purified ACKR3:LRHQ complex phosphorylated by 1.1 µM GRK2 or GRK5 (1 mM ATP, 20 min, room temperature), 2.2 µM purified β-arrestin1 or 2 added for 40 min; captured on M2 anti-FLAG resin at 4°C, washed in 50 mM HEPES pH 7.5, 150 mM NaCl, LMNG/CHS, eluted with 3×FLAG peptide; SDS-PAGE band densities, arrestin as percent of ACKR3.

Assay [3] addresses purified ACKR3:CXCL12_(LRHQ) complex, ACKR3 phosphorylated in vitro by GRK2 (UniProt P25106). The assay is described as above.

Sequence of CXCL12 (P48061 22-93): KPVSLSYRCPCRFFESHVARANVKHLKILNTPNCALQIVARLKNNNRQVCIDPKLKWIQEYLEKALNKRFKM

In assay [1], “CXCL12 (from UniProt P48061 22-93) (ligand)” showed a CXCL12 removed from the medium (25 nM CXCL12, 16 hours at 37°C) by WT HEK293A cells expressing ACKR3 RlucII, remaining chemokine by ELISA, against cells with empty vector of 64%.

In assay [2], “bovine β-arrestin1 (from UniProt P17870 1-418) (natural protein)” returned a percent of the receptor complexed with β-arrestin of 49%.

For “bovine β-arrestin2 (1–393) (from UniProt P32120 1-393) (domain or fragment)”, the percent of the receptor complexed with β-arrestin amounted to 73% in assay [2] and 14% in assay [3].
